Experimental data taken from publication PMC2528576.

Target: respiratory complex IV (S. cerevisiae (endogenous in yeast mitochondria)) (UniProt P00410)
Test: co-IP

Chain of UniProt P00410 (P00410 whole entry, looked up, one chain of several): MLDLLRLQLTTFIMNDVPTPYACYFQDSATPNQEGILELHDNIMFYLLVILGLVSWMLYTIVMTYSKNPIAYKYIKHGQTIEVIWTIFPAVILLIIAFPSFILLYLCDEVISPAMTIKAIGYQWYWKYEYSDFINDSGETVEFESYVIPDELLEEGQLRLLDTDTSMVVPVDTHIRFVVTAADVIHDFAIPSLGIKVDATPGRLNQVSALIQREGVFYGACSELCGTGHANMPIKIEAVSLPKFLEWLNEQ

percent of the total AAC2 content associated with the respiratory supercomplex: 0.5 to 1%
Substance: AAC2, the major ADP/ATP carrier (endogenous) (from UniProt P18239 1-318) (natural protein)
